Source: paper PMC6218510, “Step Sizes and Rate Constants of Single-headed Cytoplasmic Dynein Measured with Optical Tweezers” (Scientific Reports, 2018)

Assays:
[1] = test system: T1, Nc1ncnc2c1ncn2[C@@H]1O[C@H](COP(=O)(O)OP(=O)(O)OP(=O)(O)O)[C@@H](O)[C@H]1O; experiment: optical tweezers, mean displacement of single-headed dynein against ATP; type: biochemical, Homo sapiens; conditions: with microtubules (paclitaxel), pH 7.2, 25 mM PIPES, 25 mM K-acetate, 2 mM MgCl2, 25 °C, half of power stroke size
T1 construct: motor domain with short tail Gly1288-Glu4646 (384 kDa), N-terminal FLAG tag and BCCP kept; Sf9 baculovirus; monomer

[2] = test system: T1, Nc1ncnc2c1ncn2[C@@H]1O[C@H](COP(=O)(O)OP(=O)(O)OP(=O)(O)O)[C@@H](O)[C@H]1O; experiment: purified protein; type: biochemical, Homo sapiens; conditions: basal, no microtubules, 25 °C
[3] = biological target: microtubules (polymerized tubulin); experiment: optical tweezers (single-trap assay) + other: in vitro motility assay; duty ratio calculated from the velocity of a single GST-D384 molecule at no load (387 nm/s) and the microtubule gliding velocity (481 nm/s) at 1 mM ATP
[4] = biological target: microtubules (polymerized tubulin); experiment: optical tweezers (single-trap assay); single GST-D384 molecules on a trapped bead, polarity-marked microtubules fixed on glass (amino-silane, glutaraldehyde), trap stiffness 16 fN/nm, 1 mM ATP; duty ratio calculated from the decay of peak force/displacement (run length), (1-rd)^2 = 0.26
[5] = biological target: microtubules (polymerized tubulin)

Sequence of microtubules (polymerized tubulin) (chain, as listed by the source, chain 1 of 2): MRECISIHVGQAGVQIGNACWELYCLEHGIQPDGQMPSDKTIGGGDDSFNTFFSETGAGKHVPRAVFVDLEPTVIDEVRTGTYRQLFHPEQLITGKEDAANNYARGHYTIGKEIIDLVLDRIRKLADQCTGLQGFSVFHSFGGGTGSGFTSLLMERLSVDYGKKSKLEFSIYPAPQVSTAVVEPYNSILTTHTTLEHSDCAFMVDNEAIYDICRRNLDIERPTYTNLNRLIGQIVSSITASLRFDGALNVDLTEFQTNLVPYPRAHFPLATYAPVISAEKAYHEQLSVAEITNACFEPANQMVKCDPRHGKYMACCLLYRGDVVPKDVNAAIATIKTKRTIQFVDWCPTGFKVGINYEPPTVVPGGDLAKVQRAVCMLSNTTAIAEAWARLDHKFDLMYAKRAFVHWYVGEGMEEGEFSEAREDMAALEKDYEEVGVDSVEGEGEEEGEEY
Sequence of microtubules (polymerized tubulin) (chain, as listed by the source, chain 2 of 2): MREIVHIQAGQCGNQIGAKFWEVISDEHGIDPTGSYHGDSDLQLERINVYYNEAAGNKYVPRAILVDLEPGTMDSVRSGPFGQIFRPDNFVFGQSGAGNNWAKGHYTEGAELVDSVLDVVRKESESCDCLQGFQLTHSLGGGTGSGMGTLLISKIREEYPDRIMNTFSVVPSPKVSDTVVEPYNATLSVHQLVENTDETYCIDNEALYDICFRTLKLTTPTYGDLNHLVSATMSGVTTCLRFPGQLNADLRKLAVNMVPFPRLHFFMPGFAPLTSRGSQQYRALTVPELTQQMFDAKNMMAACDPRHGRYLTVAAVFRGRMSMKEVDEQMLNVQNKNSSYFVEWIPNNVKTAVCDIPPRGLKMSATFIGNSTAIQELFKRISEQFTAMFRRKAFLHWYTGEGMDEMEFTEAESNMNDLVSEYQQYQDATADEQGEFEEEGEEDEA

D384 (single-headed human cytoplasmic dynein-1 motor domain) (Homo sapiens)
K0.5 [1]: 17.6 ± 0.5 µM
Km [2]: 31 ± 4 µM

artificially dimerized dynein construct GST-D384, Q14204 1288-4646
duty ratio rd (fraction of time that each head spends attached to a microtubule) [3]: 0.59
duty ratio rd (fraction of time that each head spends attached to a microtubule) [4]: 0.49

human cytoplasmic dynein monomer construct D384, Q14204 1288-4646
Km^MT: Michaelis-Menten constant for microtubules of the microtubule-stimulated ATPase of D384 (EnzChek phosphate assay, 35 nM dynein, 0-25 μM microtubules, 1 mM ATP, 25 °C) [5]: 50 µM
